Patent US20170020994

Columns and labels:
[1] = system: RA-TALE_ICP4 (ICP4-TALE-VP16) (synthetic construct); assay: cell_activity; settings: Fluc reporter with ICP4 promoter, 293T
[2] = system: RA-TALE_ICP0 (ICP0-TALE-VP16) (synthetic construct); assay: cell_activity; settings: Fluc reporter with ICP0 promoter, 293T

Sequence | activity (fold activation) [1] | activity (fold activation) [2]
GGCAGATGGCGCGGATG (double strand) [ICP4 promoter TALE site] | 60 | 
GGGACGCGCGGCCAT (double strand) [ICP0 promoter TALE site] |  | 20
